Measured values reported in patent US20210063414A1, “METHODS FOR PREVENTING AND/OR TREATING BONE LOSS CONDITIONS BY MODULATING IRISIN” (Dana-Farber Cancer Institute, Inc., priority 2018, published 2021).

Experiments:
[1] = target: T1, MLO-Y4 cell surface proteins (Mus musculus, UniProt P97350); experiment: Crosslinking/co-immunoprecipitation/mass spectrometry (TMT quantitative proteomics) to identify irisin receptors; assay type: binding; settings: co-precipitated protein Pkp1 (PKP1_MOUSE)
T1 construct: endogenous in cells; host or cells: MLO-Y4
T1 sequence (P97350 1-728): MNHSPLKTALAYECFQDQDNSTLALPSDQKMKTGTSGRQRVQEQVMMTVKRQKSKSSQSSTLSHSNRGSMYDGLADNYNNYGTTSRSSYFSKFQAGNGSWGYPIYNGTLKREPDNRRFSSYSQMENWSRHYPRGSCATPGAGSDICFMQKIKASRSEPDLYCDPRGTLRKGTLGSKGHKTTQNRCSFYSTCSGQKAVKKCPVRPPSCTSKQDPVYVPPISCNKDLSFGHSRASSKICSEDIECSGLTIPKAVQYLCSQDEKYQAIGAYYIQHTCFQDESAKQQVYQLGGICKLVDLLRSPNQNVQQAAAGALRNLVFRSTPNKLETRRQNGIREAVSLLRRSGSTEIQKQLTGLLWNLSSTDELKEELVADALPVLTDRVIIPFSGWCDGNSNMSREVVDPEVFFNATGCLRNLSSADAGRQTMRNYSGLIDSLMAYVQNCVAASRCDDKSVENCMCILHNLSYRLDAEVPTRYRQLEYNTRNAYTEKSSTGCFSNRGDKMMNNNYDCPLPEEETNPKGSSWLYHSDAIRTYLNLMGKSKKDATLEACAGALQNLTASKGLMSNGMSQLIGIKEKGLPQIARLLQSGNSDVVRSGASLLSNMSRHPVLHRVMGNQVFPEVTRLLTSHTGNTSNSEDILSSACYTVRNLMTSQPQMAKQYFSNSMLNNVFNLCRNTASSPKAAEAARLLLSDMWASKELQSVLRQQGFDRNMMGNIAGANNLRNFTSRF
Procedure, shortened: (§1)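 Relative protein abundance came from 6-plex TMT MS3 quantitation on an Orbitrap Fusion Lumos, after in-gel trypsin digestion of Coomassie-stained SDS-PAGE lanes. Input was a Ni-NTA pulldown (250 mM imidazole elution) of lysates from murine MLO-Y4 cells. These cells were treated on ice with His-tagged irisin or adipsin (10 nM, 20 min) in serum-free medium, then crosslinked with 1.5 mM DTSSP for 30 min.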

[2] = target: T2, MLO-Y4 cell surface proteins (Mus musculus, UniProt Q9DCW4); experiment: as above; assay type: binding; settings: co-precipitated protein Etfb (ETFB_MOUSE)
T2 construct: endogenous in cells; host or cells: MLO-Y4
T2 sequence (Q9DCW4 1-255): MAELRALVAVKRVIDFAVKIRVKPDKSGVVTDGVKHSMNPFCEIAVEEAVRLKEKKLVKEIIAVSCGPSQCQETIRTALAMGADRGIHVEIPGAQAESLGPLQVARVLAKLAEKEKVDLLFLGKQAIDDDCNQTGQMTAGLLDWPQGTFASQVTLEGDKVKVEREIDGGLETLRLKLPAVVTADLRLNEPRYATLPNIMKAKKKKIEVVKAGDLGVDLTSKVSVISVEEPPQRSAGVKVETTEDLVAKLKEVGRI
Procedure, shortened: as §1

Substance: adipsin
- TMT signal-to-noise ratio [1]: 98.2846
- TMT signal-to-noise ratio [2]: 730.275
